The record followed here is article PMC5454392, “Selective BET bromodomain inhibition as an antifungal therapeutic strategy” (Nature Communications, 2017).

Numbered stars: 1 amine (or outer) side, 2 acyl side, 3 side chain; on linkers, the order of the positions; unused ones are H or OH. Square brackets hold non-standard residues; d marks the D form. Ends that are not written are not given here. Arg(Me2a) = CN(C)C(=N)NCCC[C@H](N)C(=O)O; Kac = CC(=O)NCCCC[C@H](N[*:1])C(=O)[*:2]; Lys(Me3) = C[N+](C)(C)CCCC[C@H](N)C(=O)O; Arg(Me2s) = CN=C(NC)NCCC[C@H](N)C(=O)O; pT = C[C@@H](OP(=O)(O)O)[C@H](N)C(=O)O; Lys(Me2) = CN(C)CCCC[C@H](N)C(=O)O; pS = N[C@@H](COP(=O)(O)O)C(=O)O; Cit = NC(=O)NCCC[C@H](N)C(=O)O; Lys(Me) = CNCCCC[C@H](N)C(=O)O; Me2a = not defined here

Test [1] addresses T1, CaBdf1 BD2 (GST-tagged, wild-type) (Candida albicans (strain SC5314 / ATCC …, UniProt Q5A4W8)).
T1 chain: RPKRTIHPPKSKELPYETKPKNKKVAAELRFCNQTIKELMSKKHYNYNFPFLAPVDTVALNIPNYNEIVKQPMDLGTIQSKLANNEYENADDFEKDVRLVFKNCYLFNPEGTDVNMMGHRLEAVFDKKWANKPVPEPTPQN
Description: histone peptide array (Active Motif MODified), 1 uM GST-tagged bromodomain, anti-GST detection, normalized mean intensity.

The target in test [2] is T2, CaBdf1 BD1 (GST-tagged, wild-type) (Candida albicans (strain SC5314 / ATCC …, UniProt Q5A4W8)).
T2 chain: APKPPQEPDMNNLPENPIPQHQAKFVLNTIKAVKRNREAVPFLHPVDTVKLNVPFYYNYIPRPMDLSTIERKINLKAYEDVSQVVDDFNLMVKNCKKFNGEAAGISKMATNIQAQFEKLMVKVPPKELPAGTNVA
The test is described as above.

As to ARTK(Ac)QTARKSTGGKAPRKQ, the binding score in test [1] came to 0.00222; in test [2] it was 0.00363.
The matching figures for PDPAKSAPAPKKGSKKAVT (not fully specified): 0.00074 and 0.00435.
For PRKQLATKAARK(Me)SAPATGG, the binding score was 0.00333 in test [1] and 0.00798 in test [2].
For the molecule PRKQLATKAAR(Me2s)K(Me2)[pS]APATGG, the results for the binding score in test [1] and in test [2] were 0.00074 and 0.00363, respectively.
The corresponding values for A[Arg(Me2s)]TKQTARKSTGGKAPRKQ are 0.0037 and 0.000725.
For AR[pT]KQTARKSTGGKAPRKQ, the binding score in test [1] came out at 0.00259; in test [2], 0.
For the molecule ARTKQTARKSTGGKAPRKQ (A R T K Q T A Rme2s K S T G G K A P R K Q), the binding score in test [1] came out at 0.00148; in test [2] it was 0.00218.
As for PRKQLATKAAR(Me2a)K(Me3)[pS]APATGG (reading uncertain), the figures for the binding score in test [1] and in test [2] were 0.00296 and 0.00218, respectively.
PRKQLATKAAR(Me2s)K[pS]APATGG: the binding score in test [1] is 0.00444; in test [2], 0.00181.
ARTKQTARKSTGGKAPRKQ (A R T K Q T A Rme2a Kme3 pS T G G K A P R K Q): the binding score came to 0.00333 in test [1] and 0.00254 in test [2].

B1: H3 26-45 (peptide)
chain: RKSAPATGGVKKPHRYRPG
modifications: not fully specified; histone peptide post-translational modifications (acetyl, methyl, phospho, citrulline) listed in columns 4-7 and embedded in the sequence text; N-terminus free or acetylated in column 8
Consider B1, for which the binding score in test [1] stood at 0.00296; in test [2], 0.00508.
The corresponding values for ARTKQTARKSTGGKAPRKQ (A R T K Q T A R Kac S T G G Kac A P R K Q) are 0.0211 and 0.095.
As to ARTKQTA[Arg(Me2s)][Lys(Me)][pS]TGGKAPRKQ, the binding score is 0.00259 in test [1] and 0.00508 in test [2].
Take SGRGKQGGK(Ac)ARAK(Ac)AKSRSS: the binding score in test [1] was found to be 0.0481; in test [2] it was 0.178.
Turning to A[Arg(Me2a)]T[Kac]QTAR[Kac]STGGKAPRKQ, the binding score was determined as 0.00851 in test [1] and 0.046 in test [2].
With A[Arg(Me2s)][pT]K(Ac)QTARKSTGGKAPRKQ, the binding score in test [1] came to 0.00333; in test [2] it was 0.00761.
Turning to ARTKQTARKSTGGKAPRKQ (A R T Kac Q T A Rme2a Kme1 S T G G K A P R K Q), the binding score in test [1] was 0.00555; in test [2], 0.00834.
Consider SGRGKGGKGLGKGGAKRHR (S G R G K G G K G L G Kac G G A K R H R), for which the binding score in test [1] is 0.00851; in test [2], 0.033.
Regarding SGRGKGGKGLGKGGAKRHR (S G R G K G G K G L G Kac G G A Kac R H R), the figures for the binding score in test [1] and in test [2] were 0.0248 and 0.0743, respectively.
Regarding SGRGKGGKGLGKGGAKRHR (S G R G Kac G G K G L G K G G A K R H R), the figures for the binding score in test [1] and in test [2] were 0.0241 and 0.0185, respectively.
The matching figures for A[Arg(Me2s)]T[Kac]QTA[Arg(Me2s)][Lys(Me2)]STGGKAPRKQ: 0.00666 and 0.00725.
The matching figures for ARTKQTARKSTGGKAPRKQ (A R T K Q T A R Kme2 pS T G G K A P R K Q): 0.00333 and 0.00326.
The corresponding values for SGRGK(Ac)QGGK(Ac)ARAK(Ac)AKSRSS are 0.00888 and 0.0591.
Consider PRKQLATKAA[Arg(Me2s)]K(Ac)[pS]APATGG, for which the values for the binding score in test [1] and in test [2] were 0.00629 and 0.00145, respectively.
For A[Arg(Me2s)]T[Lys(Me2)]QTA[Arg(Me2a)][Lys(Me)]STGGKAPRKQ, the binding score is 0.0037 in test [1] and 0.00544 in test [2].
For ARTK(Me)QTAR(me2s)K(me3)STGGKAPRKQ, the figures for the binding score in test [1] and in test [2] were 0.00407 and 0.00435, respectively.
With SGRGKGGKGLGKGGAKRHR (S G R G Kac G G Kac G L G Kac G G A Kac R H R), the binding score was 0.902 in test [1] and 0.471 in test [2].
The matching figures for PRKQLATKAARK(Ac)SAPATGG: 0.0307 and 0.0138.
The matching figures for ARTKQTARKSTGGKAPRKQ (A Rme2s T Kme2 Q T A Rme2s K S T G G K A P R K Q): 0.00629 and 0.00181.
The corresponding values for SGRGKGGKGLGKGGAKRHR (S G R G Kac G G Kac G L G K G G A K R H R) are 0.0326 and 0.0294.
Turning to SGRGKGGKGLGKGGAKRHR (S G Rme2s G Kac G G K G L G K G G A K R H R), the binding score in test [1] stood at 0.00555; in test [2] it was 0.0225.
As to ARTKQTARKSTGGKAPRKQ (A Rme2s T Kme2 Q T A Rme2s Kme2 S T G G K A P R K Q), the values for the binding score in test [1] and in test [2] were 0.00407 and 0.00435, respectively.
For the molecule PDPAK(Ac)SAPAPKK(Ac)GSKKAVT, the values for the binding score in test [1] and in test [2] were 0.00555 and 0.017, respectively.
The corresponding values for ARTKQTARKSTGGKAPRKQ (A R T K Q T A R Kme1 S pT G G K A P R K Q) are 0.0037 and 0.00326.

B2: c-myc tag (peptide)
chain: EQKLISEEDLA
modifications: histone peptide post-translational modifications (acetyl, methyl, phospho, citrulline) listed in columns 4-7 and embedded in the sequence text; N-terminus free or acetylated in column 8
Turning to B2, the binding score is 1 in test [1] and 1.01 in test [2].
The matching figures for RKSAPATGGVKKPHRYRPG (R K S A P A T G G V Kme1 K P H R Y R P G): 0.00481 and 0.00616.
As to ARTKQTARKSTGGKAPRKQ (A R T K Q T A Rme2s Kme3 pS T G G K A P R K Q), the binding score in test [1] was determined as 0.00333; in test [2] it was 0.00508.
The matching figures for AR(me2s)TK(Me)QTAR(me2s)K(me3)STGGKAPRKQ: 0.00629 and 0.0029.
On to SGRGKGGKGLGKGGAKRHR (pS G Rme2s G Kac G G K G L G K G G A K R H R), for which the binding score turned out to be 0.00555 in test [1] and 0.0131 in test [2].
The matching figures for K[Lys(Me)][Lys(Me2)][Lys(Me3)]K(Ac)R[Arg(Me2s)]R[Arg(Me2a)]R[Cit]K[Lys(Me)]K(Ac)[Lys(Me3)]RK [background 01]: 0.00629 and 0.00906.
The corresponding values for PDPAK(Ac)SAPAPKK(Ac)GSK(Ac)KAVT are 0.137 and 0.0616.
Turning to SGRGKGGKGLGKGGAKRHR (pS G Rme2a G Kac G G Kac G L G K G G A K R H R), the results for the binding score in test [1] and in test [2] were 0.0396 and 0.0312, respectively.
As for ARTKQTARKSTGGKAPRKQ (A Rme2a T Kme1 Q T A Rme2a Kme1 S T G G K A P R K Q), the binding score in test [1] was found to be 0.00259; in test [2], 0.00363.
The matching figures for PRKQLATKAARKSAPATGG (P R K Q L A T K A A R Kme2 S A P A T G G): 0.00666 and 0.00254.
